In patent US20150203575A1:

Key:
[1] = molecular target: FceRII expressed on cells (human) (UniProt P06734); test: flow cytometry, transfected 293T cells, 50 µg/ml
[2] = molecular target: FceRII expressed on cells (human) (UniProt P06734); test: flow cytometry, transfected 293T cells, 2 µg/ml
[3] = molecular target: human COLEC12 expressed on cells (human) (UniProt Q5KU26); test: flow cytometry, transfected 293 cells, 2nd Ab anti-His-PE; untransfected 293: 0.059
[4] = molecular target: human NPDC1 expressed on cells (human) (UniProt Q9NQX5); test: as above
Sequence of human NPDC1 expressed on cells (human) (Q9NQX5 35-325 H113Q limits assumed): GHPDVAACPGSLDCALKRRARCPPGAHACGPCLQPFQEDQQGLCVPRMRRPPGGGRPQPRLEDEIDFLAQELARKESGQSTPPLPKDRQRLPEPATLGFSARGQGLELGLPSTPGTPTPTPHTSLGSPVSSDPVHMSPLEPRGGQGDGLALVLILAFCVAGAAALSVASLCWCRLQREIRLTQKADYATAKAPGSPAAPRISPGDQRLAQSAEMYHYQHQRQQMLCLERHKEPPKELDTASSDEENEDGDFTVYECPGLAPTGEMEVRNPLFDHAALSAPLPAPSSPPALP

[5] = molecular target: human CD99 expressed on 293T cells (human) (UniProt P14209); test: as above
Sequence of human CD99 expressed on 293T cells (human) (P14209 23-185): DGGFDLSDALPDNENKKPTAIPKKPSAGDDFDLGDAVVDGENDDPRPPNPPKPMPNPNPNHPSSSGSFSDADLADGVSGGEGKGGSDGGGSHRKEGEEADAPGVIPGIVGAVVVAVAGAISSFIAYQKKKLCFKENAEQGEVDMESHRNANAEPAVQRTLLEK

[6] = molecular target: human COLEC12 expressed on cells (human) (UniProt Q5KU26); test: flow cytometry, transfected 293 cells, 2nd Ab anti-His-PE; untransfected 293: 0.13
[7] = molecular target: human NPDC1 expressed on cells (human) (UniProt Q9NQX5); test: as above
[8] = molecular target: human CD99 expressed on 293T cells (human) (UniProt P14209); test: as above
[9] = molecular target: human NPDC1 expressed on cells (human) (UniProt Q9NQX5); test: flow cytometry, transfected 293 cells, 2nd Ab anti-mouse IgG2a FITC; untransfected 293: 0
[10] = molecular target: human COLEC12 expressed on cells (human) (UniProt Q5KU26); test: flow cytometry, transfected 293 cells, 2nd Ab anti-goat-IgG-PE; untransfected 293: 0.098
[11] = molecular target: human NPDC1 expressed on cells (human) (UniProt Q9NQX5); test: as above
[12] = molecular target: human CD99 expressed on 293T cells (human) (UniProt P14209); test: as above

Sequence of mPILRβ-his (R&D) (receptor) (Q2YFS2 29-195): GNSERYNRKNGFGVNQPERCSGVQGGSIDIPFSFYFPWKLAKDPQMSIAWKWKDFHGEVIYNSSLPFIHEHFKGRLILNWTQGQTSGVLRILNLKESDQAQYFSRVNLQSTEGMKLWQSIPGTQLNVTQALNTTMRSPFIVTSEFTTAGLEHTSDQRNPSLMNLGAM
Sequence of FceRII expressed on cells (human) (P06734 whole entry N269T): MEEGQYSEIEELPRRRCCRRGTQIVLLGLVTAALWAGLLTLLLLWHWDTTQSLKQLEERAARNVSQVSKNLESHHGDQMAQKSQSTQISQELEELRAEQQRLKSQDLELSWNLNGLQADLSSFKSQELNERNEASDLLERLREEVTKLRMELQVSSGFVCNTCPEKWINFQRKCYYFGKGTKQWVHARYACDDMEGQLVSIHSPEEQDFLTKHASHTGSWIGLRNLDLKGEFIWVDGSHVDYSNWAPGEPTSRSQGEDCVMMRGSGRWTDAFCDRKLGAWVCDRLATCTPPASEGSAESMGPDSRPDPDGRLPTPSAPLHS
Sequence of human COLEC12 expressed on cells (human) (Q5KU26 whole entry S522P/G606S): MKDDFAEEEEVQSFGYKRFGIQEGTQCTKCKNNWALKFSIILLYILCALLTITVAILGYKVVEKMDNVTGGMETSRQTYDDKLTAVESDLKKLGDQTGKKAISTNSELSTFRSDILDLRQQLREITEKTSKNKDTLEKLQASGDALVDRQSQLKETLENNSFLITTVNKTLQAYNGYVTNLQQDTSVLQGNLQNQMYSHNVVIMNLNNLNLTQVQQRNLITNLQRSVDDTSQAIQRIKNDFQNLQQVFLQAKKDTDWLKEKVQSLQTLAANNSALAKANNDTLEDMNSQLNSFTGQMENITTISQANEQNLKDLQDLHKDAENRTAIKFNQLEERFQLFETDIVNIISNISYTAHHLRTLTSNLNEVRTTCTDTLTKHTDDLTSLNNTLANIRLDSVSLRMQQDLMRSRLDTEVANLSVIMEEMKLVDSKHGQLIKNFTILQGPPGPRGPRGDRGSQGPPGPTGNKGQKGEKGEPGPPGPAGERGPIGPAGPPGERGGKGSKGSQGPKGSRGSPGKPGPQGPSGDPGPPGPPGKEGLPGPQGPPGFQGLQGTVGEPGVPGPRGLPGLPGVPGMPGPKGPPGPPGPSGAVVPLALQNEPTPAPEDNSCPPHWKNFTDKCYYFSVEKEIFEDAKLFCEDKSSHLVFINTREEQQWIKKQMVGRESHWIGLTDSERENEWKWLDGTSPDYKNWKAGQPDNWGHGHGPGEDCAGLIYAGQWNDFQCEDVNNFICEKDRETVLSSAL
Sequence of mPILRα-his (R&D) (receptor) (Q2YFS3 32-198): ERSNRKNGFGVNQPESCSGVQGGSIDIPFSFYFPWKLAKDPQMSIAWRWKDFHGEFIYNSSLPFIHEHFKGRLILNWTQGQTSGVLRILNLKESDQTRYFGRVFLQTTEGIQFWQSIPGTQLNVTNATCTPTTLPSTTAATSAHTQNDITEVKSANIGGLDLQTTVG

## mPILRαR133A-Fc (from UniProt Q2YFS3 32-198) (Fc fusion)
[1]
  % cells in lower right quadrant: 0.014%

## mPILRα-Fc (from UniProt Q2YFS3 32-198) (Fc fusion)
[1]
  % cells in lower right quadrant: 47.8%
[2]
  % cells in lower right quadrant: 30.3%

## mPILRβ-his (R&D) (receptor)
[3]
  % cells in lower right quadrant: 0.062%
[4]
  % cells in lower right quadrant: 0.22%
[5]
  % cells in lower right quadrant: 0.043%

## mPILRα-his (R&D) (receptor)
[6]
  % cells in lower right quadrant: 12.3%
[7]
  % cells in lower right quadrant: 23.6%
[8]
  % cells in lower right quadrant: 0.24%

## hPILRαR126A-Fc (from UniProt Q9UKJ1 20-197) (Fc fusion)
[2]
  % cells in lower right quadrant: 0.028%

## mIgG2a (Control) (antibody)
[9]
  % cells in lower right quadrant: 0.018%

## hPILRα-Fc (from UniProt Q9UKJ1 20-197) (Fc fusion)
[1]
  % cells in lower right quadrant: 58.1%
[2]
  % cells in lower right quadrant: 15.5%

## Goat IgG (Control) (antibody)
[10]
  % cells in lower right quadrant: 2.19%
[11]
  % cells in lower right quadrant: 1.28%
[12]
  % cells in lower right quadrant: 0.19%
